From US7056679B2, “Target specific screening and its use for identifying target binders” (Antyra, Inc., priority 2001, dated 2006)

Tests used:
DGI-2 = molecular target: T1, DGI-2 (Homo sapiens, UniProt Q15004); assay: ELISA analysis of phage on DGI-2 polypeptide (specific binding); conditions: for DGI-2 (OD): binding to DGI-2 polypeptide (specific binding), phage ELISA units read at 405 nm; for DGI-2/LDH (OD): ratio of specific binding to non-specific binding
T1 construct: encompassed the entire DGI-2 open reading frame (ORF); His-tag of vector pIVEX2.3-MCS (inferred from the vector and from the reverse primer lacking a stop codon); made in house; host or cells: cell-free in vitro translation (Rapid Translation System RTS, Roche; E. coli lysate)
T1 sequence (Q15004 1-111): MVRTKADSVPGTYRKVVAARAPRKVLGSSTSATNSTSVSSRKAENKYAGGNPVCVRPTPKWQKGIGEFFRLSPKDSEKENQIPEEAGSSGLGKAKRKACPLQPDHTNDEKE
Protocol: To verify that the selected target binders bound to DGI-2, Elisa assays were performed with recombinant DGI-2. DGI-2 was subcloned and expressed using conventional methods as described below.
Protein yields were satisfactory, but most of protein was found in inclusion bodies. Next, DGI-2 was expressed using an in vitro translation system (Rapid Translation System RTS 5000, Roche Diagnostics GmbH, Mannheim Germany). For this system, the DGI-2 ORF was cloned into the pIVEX2.3-MCS vector (Roche Diagnostics) using restriction sites Nde I and Hind III, which were added to DGI-2 by PCR. […] The primers used for the PCR amplification were as follows: […]
(§1) For analysis of individual target binders, colonies were picked and phage prepared as described above using helper phage, M13KO7. Ninety-six-well microtiter plates were coated with 500 ng/well of specific target protein, 500 ng/well lactate dehydrogenase (LDH) irrelevant or non-specific target, 500 ng/well of positive control antibody raised against ETAG, and negative control of non-fat milk powder-PBS 2% at 4° C. overnight. Plates were then blocked with 350 microliters/well PBS containing 2% non-fat milk for 1 hr at room temperature. One hundred microliters per well of phage from isolated clones were added and plates were incubated at room temperature for 2 hr after centrifuging samples for 20 minutes at 3500 rpm at 4° C. The phage solution was then removed, and the wells were washed three times with PBS at room temperature. Antibody raised against M13 conjugated to horseradish peroxidase (Pharmacia) was diluted 1:3000 in PBS-Tween and added to each well (100 μl/well). Incubation was for 1 hr at room temperature, followed by washing with PBS-(0.5%) Tween 3 times as described. Color was developed by addition of ABTS solution (100 μl/well; Boehringer, Indianapolis, Ind.). Plates were analyzed at 405 nm. A clone was considered “positive” if the A405 of the well was ≧2-fold over background.

[1] = test system: lactate dehydrogenase (LDH); assay: ELISA analysis of phage on LDH (irrelevant, non-specific target); format: binding; conditions: peptide binding to LDH polypeptide (non-specific binding); phage ELISA units read at 405 nm
Protocol: as §1

E-tag antibody = assay: ELISA analysis of phage on antibody raised against ETAG (positive control); conditions: peptide binding to E-tag antibody; phage ELISA units read at 405 nm
Protocol: as §1

With “RGSLLLTLPRLSGAVGTAYG (DGI-2-20F-PP-B3; listed as Escherichia coli)” the “DGI-2 (OD)” value (DGI-2) was 3.4 OD, the “DGI-2/LDH (OD)” value (DGI-2) was 3.0 and the “LDH (OD)” value [1] was 1.1 OD. The “ETAG (OD)” value (E-tag antibody) was 11.7 OD.

In the case of “SWRLWVSGELQGDRRKGLRG (DGI-2-20R-3-B7; listed as Escherichia coli)”, the “DGI-2 (OD)” value (DGI-2) is reported as 3.1 OD, the “DGI-2/LDH (OD)” value (DGI-2) is reported as 3.0 and the “LDH (OD)” value [1] is reported as 1.0 OD. The “ETAG (OD)” value (E-tag antibody) was 11.7 OD.

In the case of “LTPYSLARSWLSGRPSTGAT (DGI-2-20F-3-C12; listed as Escherichia coli)”, the “DGI-2 (OD)” value (DGI-2) is reported as 3.2 OD, the “DGI-2/LDH (OD)” value (DGI-2) is reported as 3.1 and the “LDH (OD)” value [1] is reported as 1.0 OD. For the same substance, the “ETAG (OD)” value (E-tag antibody) was 15.1 OD.

For “ALRSLGSGGFGWQAGRASPQGMTHFPYFGWSGMPTARVRP (DGI-2-40F-3-D7; listed as Escherichia coli)”, the “DGI-2 (OD)” value (DGI-2) was 2.6 OD, the “DGI-2/LDH (OD)” value (DGI-2) was 2.6 and the “LDH (OD)” value [1] was 1.0 OD. The “ETAG (OD)” value (E-tag antibody) was 10.3 OD.

In the case of “CAYRWGLFRGPGRVDYDLQVVGIMMWPGPIPDRSSRGSVA (DGI-2-40F-3-A7; listed as Escherichia coli)”, the “DGI-2 (OD)” value (DGI-2) is reported as 0.9 OD, the “DGI-2/LDH (OD)” value (DGI-2) is reported as 1.1 and the “LDH (OD)” value [1] is reported as 0.8 OD. For the same substance, the “ETAG (OD)” value (E-tag antibody) was 8.7 OD.

“FRMWVQSCFWGQPGTGCGEG (DGI-2-20R-3-D2; listed as Escherichia coli)” was tested, and the “DGI-2 (OD)” value (DGI-2) was 7.9 OD, the “DGI-2/LDH (OD)” value (DGI-2) was 7.5 and the “LDH (OD)” value [1] was 1.1 OD. The “ETAG (OD)” value (E-tag antibody) was 14.3 OD.

With “RQRSGGRWVVDRVTRVASTSP (DGI-2-20F-PP-B12; listed as Escherichia coli)” the “DGI-2 (OD)” value (DGI-2) was 2.3 OD, the “DGI-2/LDH (OD)” value (DGI-2) was 2.2 and the “LDH (OD)” value [1] was 1.1 OD. The “ETAG (OD)” value (E-tag antibody) was 1.9 OD.

“VLGADAGMIWFMDGCGIRCR (DGI-2-20R-4-E6; listed as Escherichia coli)” was tested, and the “DGI-2 (OD)” value (DGI-2) was 7.0 OD, the “DGI-2/LDH (OD)” value (DGI-2) was 7.0 and the “LDH (OD)” value [1] was 1.0 OD. For the same substance, the “ETAG (OD)” value (E-tag antibody) was 19.1 OD.

“ACSVGTALVFPQRWWYLGRS (DGI-2-20R-3-D6; listed as Escherichia coli) [DGL-2-20R-3-D6]” was tested, and the “DGI-2 (OD)” value (DGI-2) was 2.2 OD, the “DGI-2/LDH (OD)” value (DGI-2) was 2.1 and the “LDH (OD)” value [1] was 1.1 OD. The “ETAG (OD)” value (E-tag antibody) was 12.9 OD.

With “RERWGTAWNLWTEGVVDVRP (DGI-2-20F-3-B5; listed as Escherichia coli)” the “DGI-2 (OD)” value (DGI-2) was 6.1 OD, the “DGI-2/LDH (OD)” value (DGI-2) was 6.6 and the “LDH (OD)” value [1] was 0.9 OD. The “ETAG (OD)” value (E-tag antibody) was 16.4 OD.

For “RWSICRGLQYSIPGCAVEDLSDVMA (DGI-2-20C-4-H316; listed as Escherichia coli)”, the “DGI-2 (OD)” value (DGI-2) was 3.8 OD, the “DGI-2/LDH (OD)” value (DGI-2) was 3.9 and the “LDH (OD)” value [1] was 1.0 OD. The “ETAG (OD)” value (E-tag antibody) was 7.2 OD.

With “GAIRLSGAAWTASRTGGRAS (DGI-2-20F-PP-E7; listed as Escherichia coli)” the “DGI-2 (OD)” value (DGI-2) was 1.6 OD, the “DGI-2/LDH (OD)” value (DGI-2) was 1.8 and the “LDH (OD)” value [1] was 0.9 OD. For the same substance, the “ETAG (OD)” value (E-tag antibody) was 21.5 OD.

“DSEA*RVWYSGFLRRLGHMC (DSEARVWYSGFLRRLGHMC; DGI-2-20F-PP-F7; listed as Escherichia coli)” was tested, and the “DGI-2 (OD)” value (DGI-2) was 2.1 OD, the “DGI-2/LDH (OD)” value (DGI-2) was 2.1 and the “LDH (OD)” value [1] was 1.0 OD. For the same substance, the “ETAG (OD)” value (E-tag antibody) was 3.3 OD.

With “QMIFSKGNWLAHPEGGVALGLSRESQLFRSCREFGYCMGPM [DGI-2-40F-3-C6]” the “DGI-2 (OD)” value (DGI-2) was 2.3 OD, the “DGI-2/LDH (OD)” value (DGI-2) was 2.8 and the “LDH (OD)” value [1] was 0.8 OD. The “ETAG (OD)” value (E-tag antibody) was 10.1 OD.

“LHFGSVMGWRPPGSLWSRPFGQVHPRSWSGS (DGI-2-40F-3-D11; listed as Escherichia coli)” was tested, and the “DGI-2 (OD)” value (DGI-2) was 3.8 OD, the “DGI-2/LDH (OD)” value (DGI-2) was 2.9 and the “LDH (OD)” value [1] was 1.3 OD. For the same substance, the “ETAG (OD)” value (E-tag antibody) was 10.5 OD.

With “QVGGMTQVGATVLSVVTGRGSCDGEDAWYPPGVTVGLGLC (DGI-2-40F-4-F97; listed as Escherichia coli)” the “DGI-2 (OD)” value (DGI-2) was 6.7 OD, the “DGI-2/LDH (OD)” value (DGI-2) was 6.4 and the “LDH (OD)” value [1] was 1.0 OD. The “ETAG (OD)” value (E-tag antibody) was 14.0 OD.

With “MGSLGPFGNTNSLASGIGSVRNRPLLPLHGSP [DGI-2-40F-3-D72]” the “DGI-2 (OD)” value (DGI-2) was 3.1 OD, the “DGI-2/LDH (OD)” value (DGI-2) was 2.8 and the “LDH (OD)” value [1] was 1.1 OD. For the same substance, the “ETAG (OD)” value (E-tag antibody) was 14.0 OD.

“DAGIGWVGSMWFPPGCIGAC (DGI-2-20R-4-E82; listed as Escherichia coli)” was tested, and the “DGI-2 (OD)” value (DGI-2) was 3.9 OD, the “DGI-2/LDH (OD)” value (DGI-2) was 3.7 and the “LDH (OD)” value [1] was 1.1 OD. For the same substance, the “ETAG (OD)” value (E-tag antibody) was 19.6 OD.

“RKGWGVFCIPGLRFCDWSDP (DGI-2-20R-3-B4; listed as Escherichia coli)” was tested, and the “DGI-2 (OD)” value (DGI-2) was 8.4 OD, the “DGI-2/LDH (OD)” value (DGI-2) was 8.6 and the “LDH (OD)” value [1] was 1.0 OD. The “ETAG (OD)” value (E-tag antibody) was 17.4 OD.

“GSTRLRVTVRFCSETGTPGC (DGI-2-20F-PP-G6; listed as Escherichia coli)” was tested, and the “DGI-2 (OD)” value (DGI-2) was 2.7 OD, the “DGI-2/LDH (OD)” value (DGI-2) was 2.5 and the “LDH (OD)” value [1] was 1.1 OD. The “ETAG (OD)” value (E-tag antibody) was 36.1 OD.

For “WWERFVWGRPVDDGVVVMAT (DGI-2-20R-3-B1; listed as Escherichia coli)”, the “DGI-2 (OD)” value (DGI-2) was 6.3 OD, the “DGI-2/LDH (OD)” value (DGI-2) was 6.2 and the “LDH (OD)” value [1] was 1.0 OD. The “ETAG (OD)” value (E-tag antibody) was 14.5 OD.

“LGNASSLWFLRSVQESGVR (LGNASSLIPFLRSVQESGVR; DGI-2-20F-3-C5; listed as Escherichia coli)” was tested, and the “DGI-2 (OD)” value (DGI-2) was 1.0 OD, the “DGI-2/LDH (OD)” value (DGI-2) was 1.0 and the “LDH (OD)” value [1] was 0.9 OD. For the same substance, the “ETAG (OD)” value (E-tag antibody) was 17.7 OD.

In the case of “LQIVRPAGMTKMPGQVGYYIG (LQIVRPAGWKMPGQVGYYIG; DGI-2-20R-3-A9; listed as Escherichia coli)”, the “DGI-2 (OD)” value (DGI-2) is reported as 3.4 OD, the “DGI-2/LDH (OD)” value (DGI-2) is reported as 3.4 and the “LDH (OD)” value [1] is reported as 1.0 OD. For the same substance, the “ETAG (OD)” value (E-tag antibody) was 14.3 OD.

For “VCGQRVARMQLNKTIRKLDS (DGI-2-20F-PP-A6; listed as Escherichia coli)”, the “DGI-2 (OD)” value (DGI-2) was 3.1 OD, the “DGI-2/LDH (OD)” value (DGI-2) was 2.8 and the “LDH (OD)” value [1] was 1.1 OD. The “ETAG (OD)” value (E-tag antibody) was 35.1 OD.

For “GVVRAQQGLRYELQGDRYRLRRTQWLTVTYCSPSWAFAGC (DGI-2-40F-3-B116; listed as Escherichia coli)”, the “DGI-2 (OD)” value (DGI-2) was 1.7 OD, the “DGI-2/LDH (OD)” value (DGI-2) was 2.0 and the “LDH (OD)” value [1] was 0.8 OD. For the same substance, the “ETAG (OD)” value (E-tag antibody) was 6.5 OD.
